Values quoted from earlier work, collected in article PMC3583350.

Biological target: FcεRIα ECD (Homo sapiens) (UniProt P12319)
Chain of UniProt P12319 (P12319 26-205): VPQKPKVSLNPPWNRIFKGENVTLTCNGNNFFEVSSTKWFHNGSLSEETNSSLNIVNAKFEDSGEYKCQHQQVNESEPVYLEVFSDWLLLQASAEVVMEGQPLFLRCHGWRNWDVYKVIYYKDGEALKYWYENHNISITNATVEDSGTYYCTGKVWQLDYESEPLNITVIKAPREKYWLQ

## IgE-Fc Fc (from UniProt P01854)
  Kd: 1 nM
